The experiment addresses ACE from rabbit lung (rabbit) (UniProt P12822). Nature of the experiment: cell-based or functional assay.

For 1 substance, ACE inhibition IC50 results are on record in patent US20140371148A1.

Sequence of ACE from rabbit lung (rabbit) (P12822 34-1310 limits assumed, form in doubt): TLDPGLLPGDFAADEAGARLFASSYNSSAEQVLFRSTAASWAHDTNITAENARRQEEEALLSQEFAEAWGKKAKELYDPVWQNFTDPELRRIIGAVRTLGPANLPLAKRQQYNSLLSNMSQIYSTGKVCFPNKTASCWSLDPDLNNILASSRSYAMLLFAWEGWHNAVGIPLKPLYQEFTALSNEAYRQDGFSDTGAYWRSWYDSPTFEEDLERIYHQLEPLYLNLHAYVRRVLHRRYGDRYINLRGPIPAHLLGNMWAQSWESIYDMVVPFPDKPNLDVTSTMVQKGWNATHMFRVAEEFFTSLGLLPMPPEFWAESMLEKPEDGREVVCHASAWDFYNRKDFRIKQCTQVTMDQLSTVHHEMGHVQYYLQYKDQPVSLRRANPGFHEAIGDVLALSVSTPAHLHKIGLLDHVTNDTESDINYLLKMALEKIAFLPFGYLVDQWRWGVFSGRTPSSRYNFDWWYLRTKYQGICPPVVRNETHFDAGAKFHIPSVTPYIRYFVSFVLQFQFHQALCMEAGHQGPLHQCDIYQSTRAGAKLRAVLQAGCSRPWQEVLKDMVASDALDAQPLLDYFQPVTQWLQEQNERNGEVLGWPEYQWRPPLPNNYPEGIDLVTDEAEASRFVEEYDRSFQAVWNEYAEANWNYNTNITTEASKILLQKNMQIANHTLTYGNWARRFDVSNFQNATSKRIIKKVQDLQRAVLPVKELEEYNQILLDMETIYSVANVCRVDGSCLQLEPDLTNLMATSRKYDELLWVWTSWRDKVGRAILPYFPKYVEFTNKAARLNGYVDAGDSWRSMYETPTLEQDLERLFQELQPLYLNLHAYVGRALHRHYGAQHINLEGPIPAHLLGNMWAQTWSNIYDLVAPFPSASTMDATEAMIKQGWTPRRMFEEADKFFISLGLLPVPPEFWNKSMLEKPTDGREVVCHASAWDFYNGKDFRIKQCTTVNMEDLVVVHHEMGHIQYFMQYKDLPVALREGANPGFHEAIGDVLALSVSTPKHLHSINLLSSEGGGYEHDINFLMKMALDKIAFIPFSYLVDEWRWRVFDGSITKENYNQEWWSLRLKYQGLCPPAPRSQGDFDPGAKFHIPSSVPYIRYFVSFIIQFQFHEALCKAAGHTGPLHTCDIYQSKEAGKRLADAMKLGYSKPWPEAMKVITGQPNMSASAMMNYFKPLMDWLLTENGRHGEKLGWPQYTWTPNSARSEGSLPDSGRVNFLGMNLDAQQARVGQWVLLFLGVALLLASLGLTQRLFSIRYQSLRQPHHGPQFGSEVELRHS

On to “GLP-1-(7-37)-γ-Abu-N^ε2Lys-(Pyr)-WAP-OH (peptide)”, for which the ACE inhibition IC50 is greater than 10 µM.
